Assay [1] concerns the target heterodimeric IL-1RL1/IL-1RAcP on the surface of HEK-Blue IL-33 cells (human) (UniProt Q01638). In words: cell-based or functional assay.
Assay [2] concerns the target receptor subunits IL4Rα and IL-13Rα1 naturally expressed on HEK-Blue IL-4/IL-13 cells (UniProt P24394). As to the kind of experiment: cell-based or functional assay.

The values that follow come from patent publication US20250276050A1.

Regarding “His6-cIL-33-CS (amino acids 110-263 of dog IL-33 with the 3 cysteines replaced by serine, start methionine and N-terminal His6-tag, expressed in E. coli) (from UniProt O97863 110-263) (ligand)”, in assay [1], the SEAP reporter enzyme readout, EC50 (HEK-Blue IL-33 cells) came to 10 ng/mL.

B1: cIL-13-His6 (canine IL-13 with start methionine and C-terminal His6-tag, expressed in E. coli) (ligand)
chain: MSPSPVTPSPTLKELIEELVNITQNQASLCNGSMVWSVNLTAGMYCAALESLINVSDCSAIQRTQRMLKALCSQKPAAGQISSERSRDTKIEVIQLVKNLLTYVRGVYRHGNFRHHHHHH
In assay [2], B1 showed an SEAP reporter enzyme readout, EC50 (HEK-Blue IL-4/IL-13 cells) of 2 ng/mL.
